Blank lines part the entries; values can stand above or below the binder they belong to.
Tests used:
carcinoembryonic antigen [1] = target: T1, carcinoembryonic antigen (UniProt P06731 35-685, limits assumed); test: SPR, BIACORE 3000, CEA thiol-coupled to CM5 chip, antibody in flow at 50 nM to 1.5 nM; chimeric antibody of Example 1, unlabelled
T1 construct: Antigen preparation used in the SPR assay; also called CEA
T1 sequence (looked up): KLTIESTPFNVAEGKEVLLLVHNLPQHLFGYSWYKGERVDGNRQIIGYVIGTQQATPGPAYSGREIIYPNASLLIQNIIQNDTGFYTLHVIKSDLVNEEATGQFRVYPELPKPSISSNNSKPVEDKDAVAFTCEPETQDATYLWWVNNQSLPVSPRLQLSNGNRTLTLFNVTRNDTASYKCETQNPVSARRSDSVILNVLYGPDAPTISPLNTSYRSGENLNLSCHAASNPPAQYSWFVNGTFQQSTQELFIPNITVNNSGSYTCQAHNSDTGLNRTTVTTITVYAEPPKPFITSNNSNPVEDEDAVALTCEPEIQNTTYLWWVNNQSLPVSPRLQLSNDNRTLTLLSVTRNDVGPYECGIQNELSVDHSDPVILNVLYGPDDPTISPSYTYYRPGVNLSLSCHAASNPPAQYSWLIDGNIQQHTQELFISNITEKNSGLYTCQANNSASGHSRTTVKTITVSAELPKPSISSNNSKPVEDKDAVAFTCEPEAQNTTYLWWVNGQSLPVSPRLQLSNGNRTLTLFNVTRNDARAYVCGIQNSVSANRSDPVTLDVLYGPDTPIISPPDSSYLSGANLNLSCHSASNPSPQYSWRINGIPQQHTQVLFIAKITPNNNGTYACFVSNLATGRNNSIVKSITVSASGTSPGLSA
Experimental: (§1) The affinity of the fluorescent conjugate as prepared in Example 3 to the target carcinoembryonic antigen was also determined, using surface plasmon resonance (SPR) on a BIACORE 3000 device. Carcinoembryonic antigen was coupled to a CM5 chip via the thiol groups (Surface Thiol Coupling GE healthcare; Instruction 22-0618-10AB). Association and dissociation rates were measured using in the flow 6 different concentrations (from 50 nM to 1.5 nM) of the chimeric monoclonal antibody of Example 1, the monoclonal antibody m511 (the original murine antibody from which the variable regions the chimeric monoclonal antibody of Ex. 1 is based) and fluorescent conjugate. Data acquisition and parameters calculations were performed using the Bia software and Bia evaluation programs.

carcinoembryonic antigen [2] = target: T1, carcinoembryonic antigen; test: SPR, BIACORE 3000, CEA thiol-coupled to CM5 chip, antibody in flow at 50 nM to 1.5 nM; parental murine antibody m511
Experimental: as §1

carcinoembryonic antigen [3] = target: T1, carcinoembryonic antigen; test: SPR, BIACORE 3000, CEA thiol-coupled to CM5 chip, conjugate in flow at 50 nM to 1.5 nM; chimeric antibody labelled with the near-infrared dye (conjugate of Ex. 3)
Experimental: as §1

Kd (carcinoembryonic antigen [1]): 32.7 pM
B1: anti-CEA chimeric monoclonal antibody of Example 1 (antibody, human IgG1, V domains shown)
VH: DVQLVESGGGLVQPGGSRKLSCAASGFTFSNFGMHWIRQAPEKGLEWVAYISGGSSTIYFADTLKGRFTISRDNPKNTLFLQMTSLRSEDTAIYYCARDYYINNYWYFDVWGAGTTVTVSS
VL: DIVMTQSQKFMSTSVGDRVSITCKASQNVRSAVAWYQQTPGQSPKALIYLASNRYTGVPDRFTGSGSGTDFTLTISNVQSEDLADYFCLQHWNYPLTFGGGTKLELK
notes: Expressed in CHO cells; 148.6 kDa by MALDI-TOF; also called chimeric mAb directed against CEA; anti-CEA chimeric mAb

Kd (carcinoembryonic antigen [2]): 38.2 pM
B2: monoclonal antibody m511 (antibody, V domains shown)
VH: DVQLVESGGGLVQPGGSRKLSCAASGFTFSNFGMHWIRQAPEKGLEWVAYISGGSSTIYFADTLKGRFTISRDNPKNTLFLQMTSLRSEDTAIYYCARDYYINNYWYFDVWGAGTTVTVSS
VL: DIVMTQSQKFMSTSVGDRVSITCKASQNVRSAVAWYQQTPGQSPKALIYLASNRYTGVPDRFTGSGSGTDFTLTISNVQSEDLADYFCLQHWNYPLTFGGGTKLELK
notes: Murine parental antibody; also called parental murine 511 antibody; original murine antibody

Kd (carcinoembryonic antigen [3]): 32.1 pM
B3: fluorescent conjugate of Example 3 (anti-CEA chimeric mAb of Example 1 coupled to the fluorochrome of Formula (IV)) (antibody, V domains shown)
VH: DVQLVESGGGLVQPGGSRKLSCAASGFTFSNFGMHWIRQAPEKGLEWVAYISGGSSTIYFADTLKGRFTISRDNPKNTLFLQMTSLRSEDTAIYYCARDYYINNYWYFDVWGAGTTVTVSS
VL: DIVMTQSQKFMSTSVGDRVSITCKASQNVRSAVAWYQQTPGQSPKALIYLASNRYTGVPDRFTGSGSGTDFTLTISNVQSEDLADYFCLQHWNYPLTFGGGTKLELK
modifications: cyanine fluorochrome (NHS ester of Formula (IV), giving moiety F of formula (II)) coupled to the antibody; average fluorochrome/antibody molar ratio 1.5-1.6; sites of coupling not stated
notes: In the tissue cross-reactivity study the conjugate was also biotin labelled; also called conjugate of Ex. 3

From US20180126009A1 (SURGIMAB S A S, published 2018)
